According to the supplement of paper PMC5998384:

What was measured:
HeLa Kyoto [1] = experiment: solubility in G1/S (NP-40 vs SDS abundance) (log2 ratio); higher = more soluble; details: cell cycle stage: G1/S
HeLa Kyoto [2] = experiment: thermal stability score vs G1/S (z-score of summed log2 fold changes over temperatures); higher = more thermally stable than in G1/S
HeLa Kyoto [3] = experiment: melting temperature (median over replicates), in situ; higher = more thermally stable
HeLa Kyoto [4] = experiment: solubility change mitosis vs G1/S (difference of NP-40 vs SDS log2 ratios) (log2 ratio difference); higher = more soluble in mitosis
[5] = cell cycle stage: early G1 (4.5 h after nocodazole release)
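Throughout, for melting temperature (median over replicates), in situ: HeLa Kyoto cells synchronized by double thymidine or nocodazole block, proteins quantified by TMT10plex mass spectrometry, three independent biological replicates.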
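Throughout, for solubility change mitosis vs G1/S (difference of NP-40 vs SDS log2 ratios): synchronized HeLa Kyoto cells (double thymidine block for G1/S, nocodazole release for mitosis), protein amounts in NP-40 versus SDS lysates quantified by mass spectrometry, three biological replicates.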
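Throughout, for solubility in G1/S (NP-40 vs SDS abundance): HeLa Kyoto cells arrested at G1/S by double thymidine block, proteins quantified by TMT10plex mass spectrometry in mild NP-40 versus SDS extracts, three biological replicates.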
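Throughout, for thermal stability score vs G1/S (z-score of summed log2 fold changes over temperatures): synchronized HeLa Kyoto cells, proteins quantified by TMT10plex mass spectrometry, three biological replicates, mitosis taken 0.5 h after nocodazole release, G1/S directly after double thymidine block.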

Substance | solubility in G1/S (log2) (HeLa Kyoto [1]) | thermal stability score (HeLa Kyoto [2]; [5]) | thermal stability score (HeLa Kyoto [2]; cell cycle stage: mitosis) | melting temperature (HeLa Kyoto [3]; cell cycle stage: G1/S) [°C] | melting temperature (HeLa Kyoto [3]; cell cycle stage: mitosis) [°C] | solubility change mitosis (log2) (HeLa Kyoto [4])
POLE | -0.355 | 0.724 | 1.31 | 49.5 | 51.5 | -0.0472
MDLSELERDNTGRCRLSSPVPAVCRKEPCVLGVDEAGRGPVLGPMVYAICYCPLPRLADLEALKVADSKTLLESERERLFAKMEDTDFVGWALDVLSPNLISTSMLGRVKYNLNSLSHDTATGLIQYALDQGVNVTQVFVDTVGMPETYQARLQQSFPGIEVTVKAKADALYPVVSAASICAKVARDQAVKKWQFVEKLQDLDTDYGSGYPNDPKTKAWLKEHVEPVFGFPQFVRFSWRTAQTILEKEAEDVIWEDSASENQEGLRKITSYFLNEGSQARPRSSHRYFLERGLESATSL [RNASEH2A] | 0.206 | 0.166 | 0.422 | 49.9 | 50.5 | -0.012
MAHAPARCPSARGSGDGEMGKPRNVALITGITGQDGSYLAEFLLEKGYEVHGIVRRSSSFNTGRIEHLYKNPQAHIEGNMKLHYGDLTDSTCLVKIINEVKPTEIYNLGAQSHVKISFDLAEYTADVDGVGTLRLLDAVKTCGLINSVKFYQASTSELYGKVQEIPQKETTPFYPRSPYGAAKLYAYWIVVNFREAYNLFAVNGILFNHESPRRGANFVTRKISRSVAKIYLGQLECFSLGNLDAKRDWGHAKDYVEAMWLMLQNDEPEDFVIATGEVHSVREFVEKSFLHIGKTIVWEGKNENEVGRCKETGKVHVTVDLKYYRPTEVDFLQGDCTKAKQKLNWKPRVAFDELVREMVHADVELMRTNPNA [GMDS] | -0.249 | -0.0264 | -1.35 | 56.4 | 57.4 | -0.00656
METVQLRNPPRRQLKKLDEDSLTKQPEEVFDVLEKLGEGSYGSVYKAIHKETGQIVAIKQVPVESDLQEIIKEISIMQQCDSPHVVKYYGSYFKNTDLWIVMEYCGAGSVSDIIRLRNKTLTEDEIATILQSTLKGLEYLHFMRKIHRDIKAGNILLNTEGHAKLADFGVAGQLTDTMAKRNTVIGTPFWMAPEVIQEIGYNCVADIWSLGITAIEMAEGKPPYADIHPMRAIFMIPTNPPPTFRKPELWSDNFTDFVKQCLVKSPEQRATATQLLQHPFVRSAKGVSILRDLINEAMDVKLKRQESQQREVDQDDEENSEEDEMDSGTMVRAVGDEMGTVRVASTMTDGANTMIEHDDTLPSQLGTMVINAEDEEEEGTMKRRDETMQPAKPSFLEYFEQKEKENQINSFGKSVPGPLKNSSDWKIPQDGDYEFLKSWTVEDLQKRLLALDPMMEQEIEEIRQKYQSKRQPILDAIEAKKRRQQNF [STK4] | 0.283 | 0.936 | 0.0765 | 51.8 | 51.5 | -0.0655
MEPVGCCGECRGSSVDPRSTFVLSNLAEVVERVLTFLPAKALLRVACVCRLWRECVRRVLRTHRSVTWISAGLAEAGHLEGHCLVRVVAEELENVRILPHTVLYMADSETFISLEECRGHKRARKRTSMETALALEKLFPKQCQVLGIVTPGIVVTPMGSGSNRPQEIEIGESGFALLFPQIEGIKIQPFHFIKDPKNLTLERHQLTEVGLLDNPELRVVLVFGYNCCKVGASNYLQQVVSTFSDMNIILAGGQVDNLSSLTSEKNPLDIDASGVVGLSFSGHRIQSATVLLNEDVSDEKTAEAAMQRLKAANIPEHNTIGFMFACVGRGFQYYRAKGNVEADAFRKFFPSVPLFGFFGNGEIGCDRIVTGNFILRKCNEVKDDDLFHSYTTIMALIHLGSSK [FBXO22] | -0.097 | -9.18 | -9.79 | 55.1 | 53.1 | -0.22
MAAVKEPLEFHAKRPWRPEEAVEDPDEEDEDNTSEAENGFSLEEVLRLGGTKQDYLMLATLDENEEVIDGGKKGAIDDLQQGELEAFIQNLNLAKYTKASLVEEDEPAEKENSSKKEVKIPKINNKNTAESQRTSVNKVKNKNRPEPHSDENGSTTPKVKKDKQNIFEFFERQTLLLRPGGKWYDLEYSNEYSLKPQPQDVVSKYKTLAQKLYQHEINLFKSKTNSQKGASSTWMKAIVSSGTLGDRMAAMILLIQDDAVHTLQFVETLVNLVKKKGSKQQCLMALDTFKELLITDLLPDNRKLRIFSQRPFDKLEQLSSGNKDSRDRRLILWYFEHQLKHLVAEFVQVLETLSHDTLVTTKTRALTVAHELLCNKPEEEKALLVQVVNKLGDPQNRIATKASHLLETLLCKHPNMKGVVSGEVERLLFRSNISSKAQYYAICFLNQMALSHEESELANKLITVYFCFFRTCVKKKDVESKMLSALLTGVNRAYPYSQTGDDKVREQIDTLFKVLHIVNFNTSVQALMLLFQVMNSQQTISDRYYTALYRKMLDPGLMTCSKQAMFLNLVYKSLKADIVLRRVKAFVKRLLQVTCQQMPPFICGALYLVSEILKAKPGLRSQLDDHPESDDEENFIDANDDEDMEKFTDADKETEIVKKLETEETVPETDVETKKPEVASWVHFDNLKGGKQLNKYDPFSRNPLFCGAENTSLWELKKLSVHFHPSVALFAKTILQGNYIQYSGDPLQDFTLMRFLDRFVYRNPKPHKGKENTDSVVMQPKRKHFIKDIRHLPVNSKEFLAKEESQIPVDEVFFHRYYKKVAVKEKQKRDADEESIEDVDDEEFEELIDTFEDDNCFSSGKDDMDFAGNVKKRTKGAKDNTLDEDSEGSDDELGNLDDDEVSLGSMDDEEFAEVDEDGGTFMDVLDDESESVPELEVHSKVSTKKSKRKGTDDFDFAGSFQGPRKKKRNLNDSSLFVSAEEFGHLLDENMGSKFDNIGMNAMANKDNASLKQLRWEAERDDWLHNRDAKSIIKKKKHFKKKRIKTTQKTKKQRK [CEBPZ] | -1.9 | 1.59 | 1.76 | 49.8 | 50.1 | 1.14
MAAPCEGQAFAVGVEKNWGAVVRSPEGTPQKIRQLIDEGIAPEEGGVDAKDTSATSQSVNGSPQAEQPSLESTSKEAFFSRVETFSSLKWAGKPFELSPLVCAKYGWVTVECDMLKCSSCQAFLCASLQPAFDFDRYKQRCAELKKALCTAHEKFCFWPDSPSPDRFGMLPLDEPAILVSEFLDRFQSLCHLDLQLPSLRPEDLKTMCLTEDKISLLLHLLEDELDHRTDERKTTIKLGSDIQVHVTACILSVCGWACSSSLESMQLSLITCSQCMRKVGLWGFQQIESSMTDLDASFGLTSSPIPGLEGRPERLPLVPESPRRMMTRSQDATFSPGSEQAEKSPGPIVSRTRSWDSSSPVDRPEPEAASPTTRTRPVTRSMGTGDTPGLEVPSSPLRKAKRARLCSSSSSDTSSRSFFDPTSQHRDWCPWVNITLGKESRENGGTEPDASAPAEPGWKAVLTILLAHKQSSQPAETDSMSLSEKSRKVFRIFRQWESLCSC [ZC3HC1] | 0.00532 | 0.508 | 1.84 | 49.3 | 49.2 | -0.163
BAZ1A | -0.551 | 1.48 | 3.95 | 45.9 | 49 | 0.356
MRECISVHVGQAGVQMGNACWELYCLEHGIQPDGQMPSDKTIGGGDDSFTTFFCETGAGKHVPRAVFVDLEPTVIDEIRNGPYRQLFHPEQLITGKEDAANNYARGHYTIGKEIIDPVLDRIRKLSDQCTGLQGFLVFHSFGGGTGSGFTSLLMERLSVDYGKKSKLEFSIYPAPQVSTAVVEPYNSILTTHTTLEHSDCAFMVDNEAIYDICRRNLDIERPTYTNLNRLISQIVSSITASLRFDGALNVDLTEFQTNLVPYPRIHFPLATYAPVISAEKAYHEQLSVAEITNACFEPANQMVKCDPRHGKYMACCLLYRGDVVPKDVNAAIAAIKTKRSIQFVDWCPTGFKVGINYQPPTVVPGGDLAKVQRAVCMLSNTTAIAEAWARLDHKFDLMYAKRAFVHWYVGEGMEEGEFSEAREDMAALEKDYEEVGIDSYEDEDEGEE [TUBA4A] | 0.111 | -0.775 | -2.94 | 55.6 | 54.2 | -0.138
MSAFDTNPFADPVDVNPFQDPSVTQLTNAPQGGLAEFNPFSETNAATTVPVTQLPGSSQPAVLQPSVEPTQPTPQAVVSAAQAGLLRQQEELDRKAAELERKERELQNTVANLHVRQNNWPPLPSWCPVKPCFYQDFSTEIPADYQRICKMLYYLWMLHSVTLFLNLLACLAWFSGNSSKGVDFGLSILWFLIFTPCAFLCWYRPIYKAFRSDNSFSFFVFFFVFFCQIGIYIIQLVGIPGLGDSGWIAALSTLDNHSLAISVIMMVVAGFFTLCAVLSVFLLQRVHSLYRRTGASFQQAQEEFSQGIFSSRTFHRAASSAAQGAFQGN [SCAMP2] | 0.177 | -1.72 | -3.07 | 58.4 | 56.6 | -0.103
MAPRLQLEKAAWRWAETVRPEEVSQEHIETAYRIWLEPCIRGVCRRNCKGNPNCLVGIGEHIWLGEIDENSFHNIDDPNCERRKKNSFVGLTNLGATCYVNTFLQVWFLNLELRQALYLCPSTCSDYMLGDGIQEEKDYEPQTICEHLQYLFALLQNSNRRYIDPSGFVKALGLDTGQQQDAQEFSKLFMSLLEDTLSKQKNPDVRNIVQQQFCGEYAYVTVCNQCGRESKLLSKFYELELNIQGHKQLTDCISEFLKEEKLEGDNRYFCENCQSKQNATRKIRLLSLPCTLNLQLMRFVFDRQTGHKKKLNTYIGFSEILDMEPYVEHKGGSYVYELSAVLIHRGVSAYSGHYIAHVKDPQSGEWYKFNDEDIEKMEGKKLQLGIEEDLAEPSKSQTRKPKCGKGTHCSRNAYMLVYRLQTQEKPNTTVQVPAFLQELVDRDNSKFEEWCIEMAEMRKQSVDKGKAKHEEVKELYQRLPAGAEPYEFVSLEWLQKWLDESTPTKPIDNHACLCSHDKLHPDKISIMKRISEYAADIFYSRYGGGPRLTVKALCKECVVERCRILRLKNQLNEDYKTVNNLLKAAVKGSDGFWVGKSSLRSWRQLALEQLDEQDGDAEQSNGKMNGSTLNKDESKEERKEEEELNFNEDILCPHGELCISENERRLVSKEAWSKLQQYFPKAPEFPSYKECCSQCKILEREGEENEALHKMIANEQKTSLPNLFQDKNRPCLSNWPEDTDVLYIVSQFFVEEWRKFVRKPTRCSPVSSVGNSALLCPHGGLMFTFASMTKEDSKLIALIWPSEWQMIQKLFVVDHVIKITRIEVGDVNPSETQYISEPKLCPECREGLLCQQQRDLREYTQATIYVHKVVDNKKVMKDSAPELNVSSSETEEDKEEAKPDGEKDPDFNQSNGGTKRQKISHQNYIAYQKQVIRRSMRHRKVRGEKALLVSANQTLKELKIQIMHAFSVAPFDQNLSIDGKILSDDCATLGTLGVIPESVILLKADEPIADYAAMDDVMQVCMPEEGFKGTGLLGH [USP48] | -0.074 | 1.52 | 2.6 | 47.4 | 49.1 | -0.183
MGRRSSDTEEESRSKRKKKHRRRSSSSSSSDSRTYSRKKGGRKSRSKSRSWSRDLQPRSHSYDRRRRHRSSSSSSYGSRRKRSRSRSRGRGKSYRVQRSRSKSRTRRSRSRPRLRSHSRSSERSSHRRTRSRSRDRERRKGRDKEKREKEKDKGKDKELHNIKRGESGNIKAGLEHLPPAEQAKARLQLVLEAAAKADEALKAKERNEEEAKRRKEEDQATLVEQVKRVKEIEAIESDSFVQQTFRSSKEVKKSVEPSEVKQATSTSGPASAVADPPSTEKEIDPTSIPTAIKYQDDNSLAHPNLFIEKADAEEKWFKRLIALRQERLMGSPVA [RSRC1] | -0.945 | -1.05 | -4.78 | 51.5 | 50.4 | 0.261
MERPQPDSMPQDLSEALKEATKEVHTQAENAEFMRNFQKGQVTRDGFKLVMASLYHIYVALEEEIERNKESPVFAPVYFPEELHRKAALEQDLAFWYGPRWQEVIPYTPAMQRYVKRLHEVGRTEPELLVAHAYTRYLGDLSGGQVLKKIAQKALDLPSSGEGLAFFTFPNIASATKFKQLYRSRMNSLEMTPAVRQRVIEEAKTAFLLNIQLFEELQELLTHDTKDQSPSRAPGLRQRASNKVQDSAPVETPRGKPPLNTRSQAPLLRWVLTLSFLVATVAVGLYAM [HMOX1] | 0.553 | 0.266 | 0.9 | 52.6 | 53.9 | -0.0689
